How the values were obtained:
Experiment in all cases: cell_activity
[1] = system: SB100X (Variant 27) K14R,K33A,R115H,R214D,K215A,E216V,N217Q,M243H,T314N (synthetic); settings: human CD34+ HSC, GFP+ CFU-E
[2] = system: SB M3a (Variant 30) K13A,K33A,T83A,R214D,K215A,E216V,N217Q (synthetic); settings: HeLa transposition
[3] = system: SB Variant 1 (2G6/6G2) K14R,R214D,K215A,E216V,N217Q (synthetic); settings: HeLa transposition
[4] = system: SB Variant 12 K14R,T83A,M243Q,T314N (synthetic); settings: HeLa transposition
[5] = system: SB Variant 14 K14R,K30R,R143L,A205K,H207V,K208R,D210E,R214D,K215A,E216V,N217Q,M243H (synthetic); settings: HeLa transposition
[6] = system: SB Variant 15 K14R,K30R,R147E,A205K,H207V,K208R,D210E,R214D,K215A,E216V,N217Q,M243H (synthetic); settings: HeLa transposition
[7] = system: SB Variant 16 K14R,K30R,A205K,H207V,K208R,D210E,R214D,K215A,E216V,N217Q,M243H,E267D (synthetic); settings: HeLa transposition
[8] = system: SB Variant 17 K14R,K30R,A205K,H207V,K208R,D210E,R214D,K215A,E216V,N217Q,M243H,T314N (synthetic); settings: HeLa transposition
[9] = system: SB Variant 18 K14R,K30R,A205K,H207V,K208R,D210E,R214D,K215A,E216V,N217Q,M243H,G317E (synthetic); settings: HeLa transposition
[10] = system: SB Variant 2 (3D5) K33A,R115H,R214D,K215A,E216V,N217Q,M243H (synthetic); settings: HeLa transposition
[11] = system: SB Variant 20 K14R,K30R,R147E,A205K,H207V,K208R,D210E,R214D,K215A,E216V,N217Q,M243H,T314N (synthetic); settings: HeLa transposition
[12] = system: SB Variant 21 K14R,K30R,R143L,A205K,H207V,K208R,D210E,R214D,K215A,E216V,N217Q,M243H,E267D (synthetic); settings: HeLa transposition
[13] = system: SB Variant 23 K14R,K30R,R143L,A205K,H207V,K208R,D210E,R214D,K215A,E216V,N217Q,M243H,G317E (synthetic); settings: HeLa transposition
[14] = system: SB Variant 3 (6A5) K14R,K30R,A205K,H207V,K208R,D210E,R214D,K215A,E216V,N217Q,M243H (synthetic); settings: HeLa transposition
[15] = system: SB Variant 4 K13D,K33A,T83A,H207V,K208R,D210E,M243Q (synthetic); settings: HeLa transposition
[16] = system: SB Variant 5 K13A,K33A,R214D,K215A,E216V,N217Q (synthetic); settings: HeLa transposition
[17] = system: SB Variant 6 K33A,T83A,R214D,K215A,E216V,N217Q,G317E (synthetic); settings: HeLa transposition
[18] = system: SB Variant 7 (12B1) K14R,T83A,M243Q (synthetic); settings: HeLa transposition
[19] = system: SB Variant 8 K14R,T83A,I100L,M243Q (synthetic); settings: HeLa transposition
[20] = system: SB10 Sleeping Beauty transposase (synthetic (reconstructed from fish)); settings: HeLa transposition, G418 colonies, reference

| Substance | binding signal [1] [fold vs SB10] | binding signal [2] [fold vs SB10] | binding signal [3] [fold vs SB10] | binding signal [4] [fold vs SB10] | binding signal [5] [fold vs SB10] | binding signal [6] [fold vs SB10] | binding signal [7] [fold vs SB10] | binding signal [8] [fold vs SB10] | binding signal [9] [fold vs SB10] | binding signal [10] [fold vs SB10] | binding signal [11] [fold vs SB10] | binding signal [12] [fold vs SB10] | binding signal [13] [fold vs SB10] | binding signal [14] [fold vs SB10] | binding signal [15] [fold vs SB10] | binding signal [16] [fold vs SB10] | binding signal [17] [fold vs SB10] | binding signal [18] [fold vs SB10] | binding signal [19] [fold vs SB10] | binding signal [20] [fold vs SB10] |
| --- | --- | --- | --- | --- | --- | --- | --- | --- | --- | --- | --- | --- | --- | --- | --- | --- | --- | --- | --- | --- |
| pT2-HB-CAG-GFP SB transposon | 100 | – | – | – | – | – | – | – | – | – | – | – | – | – | – | – | – | – | – | – |
| pTNeo (SB inverted repeats flanking NeoR) | – | 10 | 20 | 10 | 40 | 30 | 30 | 25 | 25 | 30 | 40 | 50 | 35 | 30 | 20 | 20 | 20 | 15 | 5 | 1 |
